Assay [1] deals with T1, human 5T4 on cells (human, UniProt Q13641 32-420).
T1 sequence: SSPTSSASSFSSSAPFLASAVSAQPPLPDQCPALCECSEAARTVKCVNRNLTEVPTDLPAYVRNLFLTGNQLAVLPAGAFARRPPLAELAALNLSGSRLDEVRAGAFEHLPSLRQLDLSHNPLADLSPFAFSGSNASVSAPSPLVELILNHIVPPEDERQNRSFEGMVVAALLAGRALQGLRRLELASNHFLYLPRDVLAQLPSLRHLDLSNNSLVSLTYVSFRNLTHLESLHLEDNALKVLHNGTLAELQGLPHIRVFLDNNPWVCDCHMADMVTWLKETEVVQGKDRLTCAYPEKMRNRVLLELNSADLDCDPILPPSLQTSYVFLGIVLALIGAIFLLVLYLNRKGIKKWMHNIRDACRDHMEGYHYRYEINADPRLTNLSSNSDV
Put plainly: cell-based or functional assay.

Assay [2] has as its target T2, human CD137 on cells (human, UniProt Q07011 24-255).
T2 construct: also called 4-1BB; TNFRSF9 (CHO-K1/human CD137 cells)
As to the kind of experiment: flow cytometry, normalized percentage of CD8 T cells (gated from CD3-stimulated human PBMC) bound by the biotinylated antibody, pooled data of 2 exp, n=6 donors. The method, then:
(§1) Following 48 h of incubation with or without CD3, human and cynomolgus PBMC were harvested, pooled, recounted and diluted in FACS buffer (PBS+0.5% BSA, 0.05% NaN₃) to a concentration of 5×10⁶ cells/mL. 50 μL (0.25×10⁶ cells) of cell solution was added to a 96-well FACS staining plate (Falcon #351190). Following 10 min of Fc-blocking in RT using Beriglobin (hIgG, 200 μg/mL), cells were washed in FACS buffer and then incubated for 1 h in 4° C. with 100 μL of the biotinylated ALG.APV-210 or negative control. The antibodies were added in a serial dilution starting either at 5 μg/mL titrating down in a 12 step ⅓ dilution down to 0.0003 μg/mL (exp 1) or 1 μg/mL titrating down in a 12 step ½ dilution down to 0.0005 μg/mL (exp 2). […] Cells were analysed for ALG.APV-210 binding using flow cytometry by gating on viable, single cells expressing CD3 and CD8. MFI values (FMO subtracted) from 2 independent experiments as well as normalized pooled data from 2 experiments and EC₅₀-values were determined and plotted using GraphPad Prism 7, non-linear regression log (agonist) vs. normalized response—variable slope, n=6 donors/group.
(Flow cytometry measures light scatter and fluorescence of single cells or particles in a stream.)

Assay [3] deals with T3, cynomolgus CD137 on cells (cynomolgus macaque, UniProt A9YYE7 24-254).
T3 construct: whole, on cells; also called CHO-K1/cynomolgus CD137 cell line; cynomolgus monkey CD137 on CD3-stimulated primary CD8 T cells
T3 sequence (A9YYE7 entry or part of it): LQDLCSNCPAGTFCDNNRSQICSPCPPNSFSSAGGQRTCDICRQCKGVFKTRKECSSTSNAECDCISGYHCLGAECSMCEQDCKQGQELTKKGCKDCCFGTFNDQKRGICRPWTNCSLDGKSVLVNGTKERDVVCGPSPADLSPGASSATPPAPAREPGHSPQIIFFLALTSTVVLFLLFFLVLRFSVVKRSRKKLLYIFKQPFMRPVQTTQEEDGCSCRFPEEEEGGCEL
As to the kind of experiment: flow cytometry, MFI of all CD3+CD8+ cells gated from CD3-stimulated cynomolgus PBMC. The procedure:
as §1

For assay [4], the target named is T2, human CD137 on cells. Put plainly: flow cytometry, CD8 T cells gated from CD3-stimulated human PBMC, biotinylated antibody + streptavidin-APC, exp 2, n=3 donors. The method, then:
as §1, with “control.” for “control. The antibodies were added in a serial dilution starting either at 5 μg/mL titrating down in a 12 step ⅓ dilution down to 0.0003 μg/mL (exp 1) or 1 μg/mL titrating down in a 12 step ½ dilution down to 0.0005 μg/mL (exp 2).”
(§2) In ELISA tests, the binding of biotinylated ALG.APV-210 to CD137 was similar to that of the non-biotinylated ALG.APV-210 (0.6 nM vs. 0.7 nM). The binding (EC₅₀) of the biotinylated ALG.APV-210 to its immunomodulatory target CD137 when expressed on activated primary human and cynomolgus CD8 T cells from CD3 stimulated PBMC was assessed and compared between the two species as well as to unstimulated cells. […]

The target of assay [5] is T3, cynomolgus CD137 on cells. As to the kind of experiment: flow cytometry, CD8 T cells gated from CD3-stimulated cynomolgus PBMC, biotinylated antibody + streptavidin-APC, exp 1, n=3 donors. The procedure:
as §1, with “control.” for “control. The antibodies were added in a serial dilution starting either at 5 μg/mL titrating down in a 12 step ⅓ dilution down to 0.0003 μg/mL (exp 1) or 1 μg/mL titrating down in a 12 step ½ dilution down to 0.0005 μg/mL (exp 2).”
as §2

Assay [6] concerns the target T1, human 5T4 on cells. As to the kind of experiment: flow cytometry, B16-hu5T4 cells, streptavidin-PE, normalized MFI of 2 pooled experiments. The procedure:
Prior to the FACS staining, all cell lines were characterized for their 5T4 expression levels using a receptor density kit (Quantum Simply Cellular, anti-human IgG, Bangs Laboratories, Inc). Adherent cell lines were cultured according to their supplier's instructions and were harvested from their cell culture flasks using Trypsin/EDTA, counted in R10 medium in a Burker chamber, and diluted in FACS buffer (PBS+0.5% BSA, 0.05% NaN₃) to a concentration of 4×10⁶ cells/mL. 50 μL (0.20×10⁶) of cell solution was added to a 96-well FACS staining plate (Falcon #351190). Cells were incubated for 20 min in 4° C. with 50 μL of the biotinylated ALG.APV-210 (2× final concentration). The antibodies were added in a serial dilution starting at 20 μg/mL titrating down in a 12 step ½ dilution down to 0.010 μg/mL. Following 2× washing with FACS buffer, cells were incubated for 30 min in 4° C. with 100 μL of a secondary antibody (streptavidin-PE, BD #554061, diluted 1/500). […] Cells were analysed for ALG.APV-210 binding using flow cytometry (FACSVerse) by gating on single cells. MFI values (secondary antibody only subtracted) from 1 out of 2 independent experiments, as well as normalized data and EC₅₀-values of pooled data from 2 experiments were determined and plotted using GraphPad Prism 7, non-linear regression log (agonist) vs. normalized response—variable slope.

In assay [7] the target is T2, human CD137 on cells. As to the kind of experiment: flow cytometry, CD8 T cells gated from CD3-stimulated human PBMC, biotinylated antibody + streptavidin-APC, exp 1, n=3 donors. The method, then: as §1, with “control.” for “control. The antibodies were added in a serial dilution starting either at 5 μg/mL titrating down in a 12 step ⅓ dilution down to 0.0003 μg/mL (exp 1) or 1 μg/mL titrating down in a 12 step ½ dilution down to 0.0005 μg/mL (exp 2).”
as §2

By EC50 is commonly meant the concentration that produces a half-maximal response. A high value points to a less potent agent. For orientation: EC50 (read off the curve) means the concentration that produces a half-maximal response.

T2 sequence (Q07011 24-255 limits assumed): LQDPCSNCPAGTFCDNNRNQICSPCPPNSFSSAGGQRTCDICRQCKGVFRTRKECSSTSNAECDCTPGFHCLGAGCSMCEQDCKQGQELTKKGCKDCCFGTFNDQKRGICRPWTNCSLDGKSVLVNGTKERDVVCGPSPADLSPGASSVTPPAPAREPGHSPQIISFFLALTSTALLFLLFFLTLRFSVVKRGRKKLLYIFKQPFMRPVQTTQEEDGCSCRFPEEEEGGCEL

B1: ALG.APV-210 (bispecific antibody)
chain: EVQLLESGGGLVQPGGSLRLSCAASGFTFSHGSMYWVRQAPGKGLEWVSSISSGSGSTYYADSVKGRFTISHDNSKNTLYLQMNSLRAEDTAVYYCARSSYYGSYYSIDYWGQGTLVTVSSGGGGSGGGGSGGGGSGGGGSDIQMTQSPSSLSASVGDRVTITCRASQSISSYLNWYQQKPGKAPKLLIYAASSLQSGVPSRFSGSGSGTDFTLTISSLQPEDFATYYCQQYYDNLPTFGQGTKLEIKEPKSSDKTHTCPPCPAPEAAGAPSVFLFPPKPKDTLMISRTPEVTCVVVDVSHEDPEVKFNWYVDGVEVHNAKTKPREEQYNSTYRVVSVLTVLHQDWLNGKEYKCAVSNKALPAPIEKTISKAKGQPREPQVYTLPPSRDELTKNQVSLTCLVKGFYPSDIAVEWESNGQPENNYKTTPPVLDSDGSFFLYSKLTVDKSRWQQGNVFSCSVMHEALHNHYTQKSLSLSPGSGGGGSGGGGSGGGGSPSEVQLLESGGGLVQPGGSLRLSCAASGFTFSSYAMSWVRQAPGKCLEWVSAISGSGGSTYYADSVKGRFTISRDNSKNTLYLQMNSLRAEDTAVYYCARYYGGYYSAWMDYWGQGTLVTVSSGGGGSGGGGSGGGGSGGGGSDIQMTQSPSSLSASVGDRVTITCRASQSISSFLNWYQQKPGKAPKLLIYAASSLQSGVPSRFSGSGSGTDFTLTISSLQPEDSATYYCQQTYGYLHTFGCGTKLEIKR
notes: Optimized ADAPTIR scFv-Fc-scFv homodimer with stabilizing disulfide in the 1210 scFv; also called 5T4-CD137 bispecific antibody
Regarding B1, in the assay with human 5T4 on cells [1], the “EC50 (nM), IFNγ release of human CD8 T cells with CT26-h5T4^high cells” value worked out at 0.41 nM and the “EC50 (nM), IFNγ release of human CD8 T cells with CT26-h5T4^low cells” value is 0.24 nM.

B2: biotinylated ALG.APV-210 (bispecific antibody)
chain: B1 chain
notes: also called ALG.APV-210 (biotinylated for FACS detection)
With B2, the EC50 with human CD137 on cells [2] was 0.027 nM; in assay [3] it was 0.236 nM; in the assay with human 5T4 on cells [6] it was 14 nM. For the same molecule, the “EC50 (read off the curve)” value is around 0.2 nM with human CD137 on cells [4], around 0.3 nM in assay [5] and around 0.3 nM with human CD137 on cells [7].

For the origin of these results see patent US20190016816A1 (APTEVO RESEARCH AND DEVELOPMENT, published 2019).
